The chains are these.
B2: HA-tagged PRMT2 (human Protein Arginine N-Methyltransferase 2, expressed from pVR1012-PRMT2-HA) (enzyme)
chain: MATSGDCPRSESQGEEPAECSEAGLLQEGVQPEEFVAIADYAATDETQLSFLRGEKILILRQTTADWWWGERAGCCGYIPANHVGKHVDEYDPEDTWQDEEYFGSYGTLKLHLEMLADQPRTTKYHSVILQNKESLTDKVILDVGCGTGIISLFCAHYARPRAVYAVEASEMAQHTGQLVLQNGFADIITVYQQKVEDVVLPEKVDVLVSEWMGTCLLFEFMIESILYARDAWLKEDGVIWPTMAALHLVPCSADKDYRSKVLFWDNAYEFNLSALKSLAVKEFFSKPKYNHILKPEDCLSEPCTILQLDMRTVQISDLETLRGELRFDIRKAGTLHGFTAWFSVHFQSLQEGQPPQVLSTGPFHPTTHWKQTLFMMDDPVPVHTGDVVTGSVVLQRNPVWRRHMSVALSWAVTSRQDPTSQKVGEKVFPIWR
notes: Expressed by transient transfection in 293 or Saos 2 cells; also called HA-PRMT2; not shown: HA tag at the C-terminus

The target of experiment [1] is T1, STAT3, endogenous in HEK293 cells (human, UniProt P40763 2-770).
T1 construct: also called endogenous STAT3
T1 sequence (P40763 2-770 limits assumed): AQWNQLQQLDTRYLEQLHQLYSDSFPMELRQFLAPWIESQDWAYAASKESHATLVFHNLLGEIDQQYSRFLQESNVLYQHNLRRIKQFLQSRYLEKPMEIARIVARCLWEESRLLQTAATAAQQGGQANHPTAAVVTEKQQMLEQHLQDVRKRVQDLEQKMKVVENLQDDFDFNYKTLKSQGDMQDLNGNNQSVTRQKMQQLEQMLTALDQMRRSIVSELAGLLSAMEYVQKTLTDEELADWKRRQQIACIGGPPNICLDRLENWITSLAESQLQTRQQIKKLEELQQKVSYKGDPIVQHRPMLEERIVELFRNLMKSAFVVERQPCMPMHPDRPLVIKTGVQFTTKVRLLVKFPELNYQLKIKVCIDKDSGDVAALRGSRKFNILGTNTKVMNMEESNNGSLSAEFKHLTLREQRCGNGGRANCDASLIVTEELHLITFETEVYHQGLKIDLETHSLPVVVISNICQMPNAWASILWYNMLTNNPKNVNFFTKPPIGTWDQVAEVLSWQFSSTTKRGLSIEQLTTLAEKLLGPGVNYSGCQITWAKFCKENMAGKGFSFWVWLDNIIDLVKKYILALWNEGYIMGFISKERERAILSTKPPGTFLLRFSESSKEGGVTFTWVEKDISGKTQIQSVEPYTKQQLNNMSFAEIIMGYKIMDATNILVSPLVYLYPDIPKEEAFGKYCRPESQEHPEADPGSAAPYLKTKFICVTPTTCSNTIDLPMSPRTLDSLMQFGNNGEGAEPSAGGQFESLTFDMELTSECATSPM
The experiment is described as follows: immunoprecipitation with anti-Flag antibody from transfected HEK293 cells, immunoblot. The protocol: (§1) To examine whether a direct interaction occurs between PRMT-2 and STAT3 in vivo, FLAG-tagged full-length PRMT-2 cDNA and/or STAT3 cDNA were transiently transfected into HEK293 cells. After culturing the transfected cells, an immunoprecipitation was performed on cell lysates using anti-Flag antibodies followed by immunoblotting with anti-PRMT-2 antibody. […] Identical results were observed when using anti-STAT3 antibodies for immunoprecipitation (data not shown).
On the technique in general: In western blotting, separated proteins are transferred to a membrane and probed.

For experiment [2], the target named is mouse STAT3 (endogenous in GT1-7 cells and VSMC, or expressed from mouse STAT3 pcDNA3 in HEK293 cells) (mouse, UniProt P42227 2-770). The experiment in a line: immunoprecipitation with anti-Flag antibody from HEK293 cells transfected with PRMT-2-Flag and STAT3, immunoblot. The protocol: as §1
Chain of mouse STAT3 (endogenous in GT1-7 cells and VSMC, or expressed from mouse STAT3 pcDNA3 in HEK293 cells) (P42227 2-770 limits assumed): as the sequence (P40763 2-770 limits assumed) above, with E759D counted along it
The target in a further experiment is T2, RelA (p65) in 293 cells (UniProt Q04206 1-551).
T2 construct: also called endogenous p65
T2 sequence (Q04206 whole entry): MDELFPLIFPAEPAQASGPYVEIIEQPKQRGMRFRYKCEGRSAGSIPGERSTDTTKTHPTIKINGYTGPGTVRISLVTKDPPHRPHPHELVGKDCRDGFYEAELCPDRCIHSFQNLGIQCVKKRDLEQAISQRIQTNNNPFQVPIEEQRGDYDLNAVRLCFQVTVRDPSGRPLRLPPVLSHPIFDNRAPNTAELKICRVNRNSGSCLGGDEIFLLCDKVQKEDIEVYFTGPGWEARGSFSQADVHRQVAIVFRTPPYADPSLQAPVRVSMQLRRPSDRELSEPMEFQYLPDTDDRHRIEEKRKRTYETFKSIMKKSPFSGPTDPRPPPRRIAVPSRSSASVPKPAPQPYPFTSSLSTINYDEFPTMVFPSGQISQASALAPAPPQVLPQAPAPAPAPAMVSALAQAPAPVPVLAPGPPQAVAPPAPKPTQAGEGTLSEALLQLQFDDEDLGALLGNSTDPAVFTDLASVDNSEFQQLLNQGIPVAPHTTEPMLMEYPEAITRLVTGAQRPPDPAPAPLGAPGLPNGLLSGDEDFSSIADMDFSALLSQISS
The experiment is described as follows: immunoprecipitation with anti-HA antibody from transfected 293 cells, immunoblot for p65. The source says: (§2) To map IκB-α domains that interacted with PRMT2, 293 cells were transfected with HA-tagged PRMT2 (FIG. 5C) and His-tagged derivatives of the indicated IκB-α expression vectors (FIG. 5B) as indicated. 24 hrs later cells were harvested in cell lysis buffer and cell lysates were immunoprecipitated with agarose-conjugated antibody to His (IκB-α) (FIG. 5D, lanes 1-4) and HA (PRMT2) (FIG. 5D, lanes 5-6), fractionated by SDS-PAGE and analyzed by immunoblotting with antibody to HA to detect PRMT2 ((FIG. 5D lanes 1, 2 and lanes 5, 6) and His (FIG. 5D, lanes 3, 4). To map the region of PRMT2 that interacted with endogenous IκB-α and p65, 293 cells were transfected with HA-tagged PRMT2 (FIG. 5C) derivatives as indicated. Cells were harvested 24 hrs after transfection in cell lysis buffer, immunoprecipitated with agarose-conjugated antibody to HA to detect PRMT2 and derivatives (FIG. 5E, lanes 7-15), fractionated by SDS-PAGE and analyzed by immunoblotting with antibody to p65 (FIG. 5E, lanes 7-9), IκB-α (FIG. 5E, lanes 10-12) or HA (FIG. 5E, lanes 13-15).
A polyclonal antibody to recombinant PRMT2 was used to examine the association between endogenous PRMT2 and IκB-α in vivo. […] The domain of IκB-α required for association with PRMT2 was mapped using in vivo immunoprecipitation assays where HA-tagged PRMT2 was coexpressed with truncation mutants of His-tagged IκB-α (FIG. 5B) in 293 cells. The ankyrin domain was both necessary and sufficient for this association (FIG. 5D, lanes 1 and 2). The domain of PRMT2 that interacted with endogenous IκB-α was mapped by immunoprecipitation following expression HA-tagged PRMT2 truncation mutants (FIG. 5C). […] When the ratios of PRMT2 or PRMT2-A binding to IκB-α were compared, both interacted with IκB-α with similar affinity.

For experiment [3], the target named is T3, retinoblastoma protein (RB), endogenous in cultured cell lines (293, U2OS) (human, UniProt P06400 2-928).
T3 construct: also called endogenous RB
T3 sequence (looked up): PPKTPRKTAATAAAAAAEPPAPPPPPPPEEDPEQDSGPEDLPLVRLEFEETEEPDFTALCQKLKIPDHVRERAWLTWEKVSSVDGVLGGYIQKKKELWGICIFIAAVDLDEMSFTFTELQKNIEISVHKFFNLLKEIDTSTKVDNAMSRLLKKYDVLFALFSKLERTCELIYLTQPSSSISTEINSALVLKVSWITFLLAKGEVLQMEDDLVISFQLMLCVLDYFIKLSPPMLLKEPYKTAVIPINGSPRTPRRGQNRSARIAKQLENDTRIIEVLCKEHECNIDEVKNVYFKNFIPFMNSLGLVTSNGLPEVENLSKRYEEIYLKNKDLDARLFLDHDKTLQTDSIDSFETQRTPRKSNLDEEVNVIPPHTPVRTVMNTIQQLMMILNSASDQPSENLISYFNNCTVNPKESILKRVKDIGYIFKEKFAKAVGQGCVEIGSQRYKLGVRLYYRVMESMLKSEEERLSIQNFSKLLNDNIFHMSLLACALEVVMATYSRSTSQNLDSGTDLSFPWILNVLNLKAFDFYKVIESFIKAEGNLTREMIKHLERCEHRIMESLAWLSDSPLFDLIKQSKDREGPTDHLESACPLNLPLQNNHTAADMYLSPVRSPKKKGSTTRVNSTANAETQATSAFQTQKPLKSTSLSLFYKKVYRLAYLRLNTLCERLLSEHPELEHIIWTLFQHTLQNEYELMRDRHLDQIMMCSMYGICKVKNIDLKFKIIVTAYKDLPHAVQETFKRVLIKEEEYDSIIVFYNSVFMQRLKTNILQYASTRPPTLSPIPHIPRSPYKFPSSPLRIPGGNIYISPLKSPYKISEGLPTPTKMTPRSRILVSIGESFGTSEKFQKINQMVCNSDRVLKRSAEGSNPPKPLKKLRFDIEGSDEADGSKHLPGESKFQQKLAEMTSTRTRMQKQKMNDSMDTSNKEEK
The experiment in a line: immunoprecipitation of endogenous RB from 293 cells transfected with HA-tagged PRMT2, Western blot with anti-HA antibody. As for the experimental part:
FIG. 8A-C illustrate that PRMT2 interacts with retinoblastoma protein (RB). […] GST-RB and GST were bound to glutathione sepharose beads and incubated with S³⁵-labeled in vitro translated PRMT1, PRMT2, PRMT3, and PRMT4. Co-precipitated labeled PRMTs were analyzed by SDS-PAGE. […] HA-tagged PRMT2 (+) or control vectors (−) were transfected in 293 cells. Cell lysates were immunoprecipitated with rabbit RB antibodies or IgG and followed by Western blot analysis using mouse HA and RB antibodies (upper panel). A Western blot using mouse HA antibodies detects HA-tagged PRMT2 (lower panel).
The interaction of PRMT2 with RB was then analyzed in vivo. HA-tagged PRMT2 expression vectors or control vectors were transfected into 293 cells, and immunoprecipitation of endogenous RB was followed by a Western blot analysis using an anti-HA antibody. PRMT2 directly interacted with RB in contrast to control vectors (FIG. 8C).

Experiment [4] has as its target B2. The experiment is described as follows: immunoprecipitation with anti-HA antibody from transfected 293 cells, immunoblot for endogenous IκB-α.
From the text: as §2
A polyclonal antibody to recombinant PRMT2 was used to examine the association between endogenous PRMT2 and IκB-α in vivo. […] The domain of IκB-α required for association with PRMT2 was mapped using in vivo immunoprecipitation assays where HA-tagged PRMT2 was coexpressed with truncation mutants of His-tagged IκB-α (FIG. 5B) in 293 cells. […]

B1: mouse PRMT2-Flag (FLAG-tagged full-length PRMT-2) (enzyme, UniProt Q9R144 1-448, looked up)
chain: MEAPGEGPCSESQVIPVLEEDPVDYGCEMQLLQDGAQLQLQLQPEEFVAIADYTATDETQLSFLRGEKILILRQTTADWWWGERAGCCGYIPANHLGKQLEEYDPEDTWQDEEYFDSYGTLKLHLEMLADQPRTTKYHSVILQNKESLKDKVILDVGCGTGIISLFCAHHARPKAVYAVEASDMAQHTSQLVLQNGFADTITVFQQKVEDVVLPEKVDVLVSEWMGTCLLFEFMIESILYARDTWLKGDGIIWPTTAALHLVPCSAEKDYHSKVLFWDNAYEFNLSALKSLAIKEFFSRPKSNHILKPEDCLSEPCTILQLDMRTVQVPDLETMRGELRFDIQKAGTLHGFTAWFSVYFQSLEEGQPQQVVSTGPLHPTTHWKQTLFMMDDPVPVHTGDVVHGFCCVTKKSGMEKAHVCLSELGCHVRTRSHVSTELETGSFRSGGDS
notes: Printed both as PRMT2-Flag and as Flag-PRMT2, so the end that carries the tag is uncertain; Expressed in HEK293 cells; also called Flag-PRMT2; Flag PRMT2 fusion protein; not shown: Flag tag
Take B1: the binding result in experiment [1] and in experiment [2] was “binds” each time.

In the case of B2, the binding result with RelA (p65) in 293 cells was “no binding”; in experiment [3] it was “binds”.

B3: IκB-α, endogenous in 293 cells (other, human, UniProt P25963 1-317, looked up)
chain: MFQAAERPQEWAMEGPRDGLKKERLLDDRHDSGLDSMKDEEYEQMVKELQEIRLEPQEVPRGSEPWKQQLTEDGDSFLHLAIIHEEKALTMEVIRQVKGDLAFLNFQNNLQQTPLHLAVITNQPEIAEALLGAGCDPELRDFRGNTPLHLACEQGCLASVGVLTQSCTTPHLHSILKATNYNGHTCLHLASIHGYLGIVELLVSLGADVNAQEPCNGRTALHLAVDLQNPDLVSLLLKCGADVNRVTYQGYSPYQLTWGRPSTRIQQQLGQLTLENLQMLPESEDEESYDTESEFTEFTEDELPYDDCVFGGQRLTL
notes: also called endogenous IκB-α
For the molecule B3, in experiment [4], the binding result was “binds”.

These data come from US20060239990A1 (published 2006).
